The source of these data is patent publication US20240116985A1 (published 2024).

Experiment [1] concerns the target T1, B-cat-Halo (beta-catenin HaloTag NanoBRET construct expressed in HEK293 cells) (UniProt P35222 1-781).
T1 sequence (looked up): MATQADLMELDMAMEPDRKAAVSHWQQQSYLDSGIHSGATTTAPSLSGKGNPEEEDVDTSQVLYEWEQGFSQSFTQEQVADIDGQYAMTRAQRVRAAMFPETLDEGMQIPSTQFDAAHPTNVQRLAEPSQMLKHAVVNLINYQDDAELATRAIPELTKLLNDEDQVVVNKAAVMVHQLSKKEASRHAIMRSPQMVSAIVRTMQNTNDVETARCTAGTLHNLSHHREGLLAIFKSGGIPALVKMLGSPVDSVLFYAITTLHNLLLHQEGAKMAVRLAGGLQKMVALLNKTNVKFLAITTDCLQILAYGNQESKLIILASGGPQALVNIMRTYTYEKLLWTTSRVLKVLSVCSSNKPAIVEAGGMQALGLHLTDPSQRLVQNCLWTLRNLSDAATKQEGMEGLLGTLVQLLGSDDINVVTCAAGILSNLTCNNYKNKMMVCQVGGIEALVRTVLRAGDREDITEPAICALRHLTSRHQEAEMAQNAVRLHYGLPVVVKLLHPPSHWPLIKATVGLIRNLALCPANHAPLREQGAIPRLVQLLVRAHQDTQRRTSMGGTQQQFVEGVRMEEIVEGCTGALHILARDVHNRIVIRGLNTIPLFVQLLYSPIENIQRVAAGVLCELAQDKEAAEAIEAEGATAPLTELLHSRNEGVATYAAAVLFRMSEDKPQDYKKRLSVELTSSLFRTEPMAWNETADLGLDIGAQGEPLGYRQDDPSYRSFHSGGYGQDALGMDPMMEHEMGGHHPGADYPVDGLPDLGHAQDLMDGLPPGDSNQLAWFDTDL
Description: cell-based or functional assay.

Experiment [2] addresses T2, full-length beta-Catenin (Uniprot ID P35222) (Homo sapiens (Human), UniProt P35222 2-781).
T2 construct: full-length; also called bCat; B-Catenin
T2 sequence: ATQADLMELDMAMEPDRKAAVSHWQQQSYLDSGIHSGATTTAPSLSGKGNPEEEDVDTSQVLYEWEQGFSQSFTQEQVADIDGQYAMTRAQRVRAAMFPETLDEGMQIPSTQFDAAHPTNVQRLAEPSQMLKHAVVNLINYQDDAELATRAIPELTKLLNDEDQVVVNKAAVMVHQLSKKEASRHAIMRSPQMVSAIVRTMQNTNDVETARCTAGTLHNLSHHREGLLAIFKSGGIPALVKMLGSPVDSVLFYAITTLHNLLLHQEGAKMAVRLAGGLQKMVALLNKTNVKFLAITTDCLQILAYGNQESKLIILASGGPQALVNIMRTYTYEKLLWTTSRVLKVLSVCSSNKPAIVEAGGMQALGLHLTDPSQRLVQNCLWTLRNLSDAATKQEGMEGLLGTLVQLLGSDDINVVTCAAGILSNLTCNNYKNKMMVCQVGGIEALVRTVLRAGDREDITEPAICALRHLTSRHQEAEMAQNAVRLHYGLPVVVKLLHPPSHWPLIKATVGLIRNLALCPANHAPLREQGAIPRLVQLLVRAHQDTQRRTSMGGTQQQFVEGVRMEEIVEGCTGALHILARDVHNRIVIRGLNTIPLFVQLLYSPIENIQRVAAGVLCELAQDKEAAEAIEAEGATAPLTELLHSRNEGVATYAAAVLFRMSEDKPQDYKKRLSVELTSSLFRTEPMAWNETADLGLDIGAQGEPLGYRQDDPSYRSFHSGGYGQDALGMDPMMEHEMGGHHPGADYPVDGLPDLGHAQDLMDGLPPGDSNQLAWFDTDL
In words: fluorescence polarization competition; displaces 5FAM-TCF4(10-53) from full-length beta-catenin. As for the experimental part: The plate was incubated protected from light for 60 minutes at 20° C. prior to read. Reads were performed on a CLARIOstar plate reader (BMG Labtech) in duplicate, and data were fitted to a 1:1 binding model with hill slope using an in-house script. All provided concentrations are final concentrations.

Starred links: 1 amine or outer side, 2 acyl side, 3 side chain; linkers in the order of their positions; H or OH if unused. Positions of bridges follow the written chain, without caps; N, C: chain ends. Non-standard residues stand in square brackets, D forms with d. Primed or numbered codes have the meaning given here. B5(15) = 2-amino-2-(pent-4-en-1-yl)hept-6-enoic acid (2,2-bis(4-pentenyl)glycine), stitching residue bearing two staples, C=CCCCC(CCCC=C)(N[*:1])C(=O)[*:2]; B5(23) = 2-amino-2-(pent-4-en-1-yl)hept-6-enoic acid (2,2-bis(4-pentenyl)glycine), stitching residue, C=CCCCC(CCCC=C)(N[*:1])C(=O)[*:2]; Bta = N[C@@H](Cc1csc2ccccc12)C(=O)O; αAllylPro = C=CC[C@@]1(C(=O)O)CCCN1; S8 = C=CCCCCCC[C@](C)(N)C(=O)O; hSer = N[C@@H](CCO)C(=O)O Some results are limits rather than exact numbers.

B1: I-1532 (peptide)
peptide: XDNXDEAAFQXFXQ
modifications: not fully specified; N-terminal Ac; PL3 at 1, B5 at 4, S8 at 11 (staples PL3-B5 and B5-S8 by olefin metathesis); BztA at 13; C-terminal NH2
notes: Stapled peptide composition; Same description as I-1531; separate, later eluting HPLC peak (staple isomer); also called Ac-PL3-Asp-Asn-B5-Asp-Glu-Ala-Ala-Phe-Gln-S8-Phe-BztA-Gln-NH2
For the molecule B1, the “NanoBRET Abs IC50” value in experiment [1] is greater than 20000 nM. For the same molecule, the IC50 in experiment [2] came out at 49 nM.

B2: I-1546 (peptide)
peptide: Ac-[αAllylPro]D[hSer][B5(15)]DEAAFL[S8]F[Bta]Q-NH2
modifications: staple 1-4, 4-11
notes: Stapled peptide composition; also called Ac-PL3-Asp-Hse-B5-Asp-Glu-Ala-Ala-Phe-Leu-S8-Phe-BztA-Gln-NH2
As to B2, in experiment [1], the “NanoBRET Abs IC50” value amounted to 37900 nM. The IC50 in experiment [2] came out at 71 nM.

B3: I-1553 (peptide)
peptide: Ac-[αAllylPro]DK[B5(23)]DEAAFL[S8]F[Bta]Q-NH2
modifications: staple 1-4, 4-11
notes: Stapled peptide composition; also called Ac-PL3-Asp-Lys-B5-Asp-Glu-Ala-Ala-Phe-Leu-S8-Phe-BztA-Gln-NH2
B3: the “NanoBRET Abs IC50” value in experiment [1] was greater than 20000 nM. For the same molecule, the half-maximal inhibitory concentration (IC50) in experiment [2] is 133 nM.

B4: I-1545 (peptide)
peptide: XDSXDEAAFQXFXQ
modifications: not fully specified; N-terminal Ac; PL3 at 1, B5 at 4, S8 at 11 (staples PL3-B5 and B5-S8 by olefin metathesis); Hse at 3; BztA at 13; C-terminal NH2
notes: Stapled peptide composition; later eluting HPLC peak (staple isomer); also called Ac-PL3-Asp-Hse-B5-Asp-Glu-Ala-Ala-Phe-Gln-S8-Phe-BztA-Gln-NH2
For B4, the “NanoBRET Abs IC50” value in experiment [1] was greater than 20000 nM. The molecule also gave a 50% inhibitory concentration (IC50) in experiment [2] of 26 nM.

B5: I-1547 (peptide)
peptide: Ac-[αAllylPro]D[hSer][B5(15)]DEAAF[hSer][S8]F[Bta]Q-NH2
modifications: staple 1-4, 4-11; not fully specified; printed as Ac-PL3-Asp-Hse-B5-Asp-Glu-Ala-Ala-Phe-Hse-S8-Phe-BztA-Gln-NH2
notes: Stapled peptide composition; Same description as I-1548; earlier eluting HPLC peak (staple isomer); also called Ac-PL3-Asp-Hse-B5-Asp-Glu-Ala-Ala-Phe-Hse-S8-Phe-BztA-Gln-NH2
As for B5, the “NanoBRET Abs IC50” value in experiment [1] was greater than 20000 nM. This molecule also yielded an IC50 in experiment [2] of 68 nM.

B6: I-1535 (peptide)
peptide: Ac-[αAllylPro]DN[B5(15)]DEAAF[hSer][S8]F[Bta]Q-NH2
modifications: staple 1-4, 4-11; not fully specified; printed as Ac-PL3-Asp-Asn-B5-Asp-Glu-Ala-Ala-Phe-Hse-S8-Phe-BztA-Gln-NH2
notes: Stapled peptide composition; later eluting HPLC peak (staple isomer); also called Ac-PL3-Asp-Asn-B5-Asp-Glu-Ala-Ala-Phe-Hse-S8-Phe-BztA-Gln-NH2
Regarding B6, the “NanoBRET Abs IC50” value in experiment [1] is greater than 20000 nM. In experiment [2], this molecule returned an IC50 of 72 nM.

B7: I-1552 (peptide)
peptide: Ac-[αAllylPro]DK[B5(23)]DEAAFQ[S8]F[Bta]Q-NH2
modifications: staple 1-4, 4-11
notes: Stapled peptide composition; also called Ac-PL3-Asp-Lys-B5-Asp-Glu-Ala-Ala-Phe-Gln-S8-Phe-BztA-Gln-NH2
With B7, the “NanoBRET Abs IC50” value in experiment [1] is greater than 20000 nM. In experiment [2], the IC50 was 56 nM.

B8: I-1534 (peptide)
peptide: Ac-[αAllylPro]DN[B5(15)]DEAAF[hSer][S8]F[Bta]Q-NH2
modifications: staple 1-4, 4-11; not fully specified; printed as Ac-PL3-Asp-Asn-B5-Asp-Glu-Ala-Ala-Phe-Hse-S8-Phe-BztA-Gln-NH2
notes: Stapled peptide composition; Same description as I-1535; earlier eluting HPLC peak (staple isomer); also called Ac-PL3-Asp-Asn-B5-Asp-Glu-Ala-Ala-Phe-Hse-S8-Phe-BztA-Gln-NH2
B8: in experiment [1], the “NanoBRET Abs IC50” value was greater than 20000 nM. In experiment [2], this molecule registered an IC50 of 181 nM.

B9: I-1541 (peptide)
peptide: Ac-[αAllylPro]DQ[B5(15)]DEAAFL[S8]F[Bta]Q-NH2
modifications: staple 1-4, 4-11
notes: Stapled peptide composition; also called Ac-PL3-Asp-Gln-B5-Asp-Glu-Ala-Ala-Phe-Leu-S8-Phe-BztA-Gln-NH2
As to B9, the “NanoBRET Abs IC50” value in experiment [1] was found to be 34700 nM. This molecule also yielded a concentration for half-maximal inhibition (IC50) in experiment [2] of 39 nM.

B10: I-1551 (peptide)
peptide: Ac-[αAllylPro]DF[B5(23)]DEAAF[hSer][S8]F[Bta]Q-NH2
modifications: staple 1-4, 4-11
notes: Stapled peptide composition; also called Ac-PL3-Asp-Phe-B5-Asp-Glu-Ala-Ala-Phe-Hse-S8-Phe-BztA-Gln-NH2
B10: the “NanoBRET Abs IC50” value in experiment [1] amounted to 19800 nM. Besides, the 50% inhibitory concentration (IC50) in experiment [2] was found to be 16 nM.

B11: I-1539 (peptide)
peptide: XDQXDEAAFQXFXQ
modifications: not fully specified; N-terminal Ac; PL3 at 1, B5 at 4, S8 at 11 (staples PL3-B5 and B5-S8 by olefin metathesis); BztA at 13; C-terminal NH2
notes: Stapled peptide composition; earlier eluting HPLC peak (staple isomer); also called Ac-PL3-Asp-Gln-B5-Asp-Glu-Ala-Ala-Phe-Gln-S8-Phe-BztA-Gln-NH2
On to B11, for which, in experiment [1], the “NanoBRET Abs IC50” value is greater than 20000 nM. For the same molecule, the concentration for half-maximal inhibition (IC50) in experiment [2] was found to be 36 nM.

B12: I-1540 (peptide)
peptide: XDQXDEAAFQXFXQ
modifications: not fully specified; N-terminal Ac; PL3 at 1, B5 at 4, S8 at 11 (staples PL3-B5 and B5-S8 by olefin metathesis); BztA at 13; C-terminal NH2
notes: Stapled peptide composition; Same description as I-1539; later eluting HPLC peak (staple isomer); also called Ac-PL3-Asp-Gln-B5-Asp-Glu-Ala-Ala-Phe-Gln-S8-Phe-BztA-Gln-NH2
As for B12, in experiment [1], the “NanoBRET Abs IC50” value stood at 42400 nM. Also, in experiment [2], the IC50 was determined as 17 nM.

B13: I-1544 (peptide)
peptide: XDSXDEAAFQXFXQ
modifications: not fully specified; N-terminal Ac; PL3 at 1, B5 at 4, S8 at 11 (staples PL3-B5 and B5-S8 by olefin metathesis); Hse at 3; BztA at 13; C-terminal NH2
notes: Stapled peptide composition; earlier eluting HPLC peak (staple isomer); also called Ac-PL3-Asp-Hse-B5-Asp-Glu-Ala-Ala-Phe-Gln-S8-Phe-BztA-Gln-NH2
Regarding B13, the “NanoBRET Abs IC50” value in experiment [1] is greater than 20000 nM. The molecule further gave a 50% inhibitory concentration (IC50) in experiment [2] of 61 nM.
